Patent US20140287419A1, “Compositions Having Dicamba Decarboxylase Activity and Methods of Use” (priority 2013, published 2014)
Changes are numbered by the printed parent chain. Numbers in names are those of the source.

B1: SEQ ID NO:117: Design variant of SEQ ID NO: 95 (protein)
chain: MAKKPRIDMHSHFFPRISEQEAAKFDANHAPWLQVSAKGDTGSIMMGKNNFRPVYQALWDPAFRIEEMDAQGVDVQVTCATPVMFGYTWEANKAAQWAERMNDFALEFAAHNPQRIKVLAQVPLQDLDLACKEASRAVAAGHLGIQIGNHLGDKDLDDATLEAFLTHCANEDIPILVHPWDMMGGQRMKKWMLPVLVAAPAEVQLAILSLILSGAFERIPKSLKICFAGGGGSFAFLLGIVDLAWRHRDIVREDCPRPPSEYVDRFFVDSLVFNPGALELLVSVMGEDRVMLGSDYPFPTGEQKIGGLVLSSNLGESAKDKIISGNASKFFNINV
modifications: Dicamba decarboxylase variant clone DC.5.008
B2: N61G: point mutation N61G of SEQ ID NO:109 (protein)
chain: MAQGKVALEEHFAIPETLQDSAGFVPGDYWKELQHRLLDIQDTRLKLMDAHGIETMILSLGAPAVQAIPDRRKAIEIARRANDVLAEECAKRPDRFLAFAALPLQDPDAATEELQRCVNDLGFVGALVNGFSQEGDGQTPLYYDLPQYRPFWGEVEKLDVPFYLHPRNPLPQDSRIYDGHPWLLGPTWAFAQETAVHALRLMASGLFDEHPRLNIILGHMGEGLPYMMWRIDHRVAWVKLPPRYPAKRRFMDYFNENFHITTSGNFRTQTLIDAILEIGADRILFSTDWPFENIDHASDWFNATSIAEADRVKIGRTNARRLFKLDGA
modifications: Dicamba decarboxylase variant clone DC.4.032
B3: A64G: point mutation A64G of SEQ ID NO:109 (protein)
chain: B2 chain with G61N, A64G
modifications: Dicamba decarboxylase variant clone DC.4.032
B4: P63V: point mutation P63V of SEQ ID NO:109 (protein)
chain: B2 chain with G61N, P63V
modifications: Dicamba decarboxylase variant clone DC.4.032
B5: L240A: point mutation L240A of SEQ ID NO:109 (protein)
chain: B2 chain with G61N, L240A
modifications: Dicamba decarboxylase variant clone DC.4.032
B6: N61S: point mutation N61S of SEQ ID NO:109 (protein)
chain: B2 chain with G61S
modifications: Dicamba decarboxylase variant clone DC.4.032
B7: L240D: point mutation L240D of SEQ ID NO:109 (protein)
chain: B2 chain with G61N, L240D
modifications: Dicamba decarboxylase variant clone DC.4.032
B8: A64S: point mutation A64S of SEQ ID NO:109 (protein)
chain: B2 chain with G61N, A64S
modifications: Dicamba decarboxylase variant clone DC.4.032
B9: N214Q: point mutation N214Q of SEQ ID NO:109 (protein)
chain: B2 chain with G61N, N214Q
modifications: Dicamba decarboxylase variant clone DC.4.032
B10: V235I: point mutation V235I of SEQ ID NO:109 (protein)
chain: B2 chain with G61N, V235I
modifications: Dicamba decarboxylase variant clone DC.4.032
B11: SEQ ID NO:41: amidohydrolase 2, Polaromonas sp. JS666 (protein, listed as Polaromonas sp.)
chain: MANGKIALEEHFATEETLMDSAGFVPDKDWPELRSRLLDIQDRRVRLMDEHGIETMILSLNAPAVQAIADSTRANETARRANDFLAEQVAKQPTRFRGFAALPMQDPELAARELERCVKELGFVGALVNGFSQDNRSAVPLYYDMAQYWPFWETVQALDVPFYLHPRNPLPSDARIYDGHAWLLGPTWAFGQETAVHALRLMGSGLFDKYPALKIILGHMGEGLPYSMWRIDHRNAWIKTTPKYPAKRKIVDYFNENFYLTTSGNFRTQTLIDAILEIGADRILFSTDWPFENIDHAADWFENTSISEADRKKIGWGNAQNLFKLNR

How the values were obtained:
[1] = Dicamba decarboxylation activity of computationally designed protein variants; settings: native protein or designed variant versus parent
[2] = Detection of 2,5-DCA product by toluene capture or head-space GC/MS; assay type: biochemical; settings: purified protein, toluene capturing
Protocol: Alternatively, dicamba decarboxylase activity can be monitored by measuring decarboxylation products other than CO2 using product detection methods. The decarboxylation product of dicamba, 2,5-dichloro anisole or 2,5-DCA (FIG. 1C), is a volatile compound with a flash point of 21° C. To capture this volatile compound for detection, 140 ul of toluene solution is added on top of 1 ml reaction mixture to form a trapping layer in a 1.5 ml eppendorf tube. […] The reaction is kept still at room temperature overnight before being vortex mixed and centrifuged at 14,000 rpm for 15 minutes. The top toluene phase is carefully removed using a micropipette and transferred into a 12×32 mm polypropylene vial (Vial 11 mm) from MicroLiter Analytical Supplies, Inc. (catalog number 11-5300-100). The vial is sealed with Crimp seal (11 mm with FEP/Nat Rubber) from MicroLiter Analytical Supplies, Inc. (catalog number 11-0020A) using a E-Z Crimper™ 11 mm from Wheaton Inc. 1 ul of the toluene mixture is taken from the sealed vials and injected in splitless mode into a GC/MS system for sample analysis (Agilent GC/MS system with a 6890A GC, a 5973N MSD and a CTC CombiPAL auto-sampler or with a 7890A GC, a 5975C MSD and an Agilent GC Sampler 80 auto-sampler). The GC parameters are: Agilent DB-5MS column (30 m length, 0.25 mm diameter, 0.25 um film) or equivalent; The GC inlet temperature, 250° C.; Carry gas, helium in constant flow mode (1.2 mL/min); The GC oven temperature program, initial temperature at 70° C. for 1 min, ramping to 200° C. at 15° C./min, and then ramping to 250° C. at 30° C./min. MS data acquisition is done in SIM (selected ion monitoring) mode, monitoring the positive ion at M/Z 176 for the molecular ion of […]. The solvent delay for MS acquisition is set at 4 min. Another method for detection of 2,5-DCA is a head-space GC/MS method. Briefly, reaction mixtures in 500 ul reaction volume are prepared in 1.5 ml×32 mm glass vials (Microliter Analytical Supplies, Cat#11-1200) for head space analysis. Glass vials are sealed with magnetic cap from MicroLiter Analytical Supplies, Inc. (catalog number 11-0030AT) using a E-Z Crimper™ 11 mm from Wheaton Industries Inc. The reaction is carried out at room temperature for various amount of time and stopped by heating at 95° C. for 5 min. The reaction vial is transferred to a agitator for incubation at 80° C. for 5 min at 500 rpm. With a syringe preheated at 80° C., 1000 uL of head space is injected with sample fill speed at 100 uL/sec. GC/MS parameters for headspace analysis are the same as for liquid sample analysis.

[3] = Detection of 4-chloro-3-methoxy phenol product by LC-MS/MS; assay type: biochemical; settings: purified protein
Protocol: The decarboxylated and chloro hydrolyzed product, 4-chloro-3-methoxy phenol (FIG. 1D), is measured using a LC-MS/MS analytical procedure. […] 10 ul is removed from the reaction mixture and mixed with 90 ul pre-chilled methanol followed by centrifugation at 14,000 rpm for 15 min at 4° C. 10 ul of the supernatant is then transferred into 170 ul ddH2O to achieve 5% methanol solution for injection. 50 ul of the prepared sample is injected into a 4000 Q Trap LC-MS/MS system for sample analysis. LC-MS/MS parameters are: Mobile Phase A, 2 mM ammonium acetate in water; Mobile Phase B, 2 mM ammonium acetate in methanol; Column, Aquasil, 100×2.1 mm, 3 μm, C18 column; Flow Rate, 0.6 ml/min. The MS/MS fragment 157/142 which is common to 4-chloro-3-methoxy phenol, 2-chloro-5-methoxy phenol, and 3-chloro-5-methoxy phenol is monitored at a retention time of 2.88 min.

[4] = 14C assay with purified protein (14CO2 captured on Ca(OH)2 filter paper); assay type: biochemical; settings: [14C]-carboxyl-labeled dicamba
[5] = Detection of 2,5-DCP product by GC/MS; assay type: biochemical; settings: purified protein
Protocol: The decarboxylated and demethylated product of dicamba, 2,5-dichloro phenol or 2,5-DCP (FIG. 1E) is measured using a GC/MS analytical procedure with either liquid injection after liquid/liquid extraction using toluene as the extraction solvent or gas injection using head space method. The head space sample analysis is carried out on an Agilent GC/MS system with a 6890A GC, a 5973N MSD and a CTC CombiPAL auto-sampler or with a 7890A GC, a 5975C MSD and an Agilent GC Sampler 80 auto-sampler with Phenomenex ZB-MultiResidue-1 column (30 m length, 0.25 mm diameter, 0.25 um film) or equivalent. GC/MS parameters are: GC inlet temperature, 200° C.; Carry gas, helium in constant flow mode (1.2 mL/min); Oven temperature program, 70° C. for 1 min and then ramp to 275° C. at 40° C./min. […] The reaction vial is transferred to a agitator for incubation at 90° C. for 4 min at 500 rpm. With a syringe preheated at 110° C., 1000 uL of head space is injected with sample fill speed at 100 uL/sec. A 2-mm diameter liner is used in sample inlet. The MS data acquisition is done in SIM (selected ion monitoring) mode. The positive ion at M/Z 162 for the molecular ion of 2,-5-DCP is monitored at retention time of 4.06 min. Solvent delay for MS acquisition is set at 3 min. GC/MS parameters for liquid sample analysis are the same as those for head space analysis, except that the volume of liquid injection is 1 uL.

[6] = Saturation mutagenesis of SEQ ID NO:109, dicamba decarboxylation activity of point mutants
[7] = 14C assay with IPTG-induced recombinant E. coli cells (14CO2 capture from [14C]-carboxyl-labeled dicamba); settings: E. coli cell assay, 108 sequences tested
[8] = dicamba decarboxylation activity of point mutants of SEQ ID NO: 109 (NNK saturation mutagenesis), relative to the unchanged template
[9] = dicamba decarboxylation activity of single point mutants of SEQ ID NO:109, relative to unchanged template

Molecule	Average Activity (Fold of SEQ ID NO: 109) [6, 8]	Average Activity (Fold of SEQ ID NO: 109) [6, 9]	further results
B1			Dicamba Decarboxylase Activity [1]: have dicamba decarboxylase activity; 2,5-DCA product [2]: detected; 4-chloro-3-methoxy phenol product [3]: not detected; CO2 product [4]: not detected; 2,5-DCP product [5]: not detected
B2	2.3 Fold of SEQ ID NO: 109		
B3	2.6 Fold of SEQ ID NO: 109	2.6 Fold of SEQ ID NO: 109	
B4	1.8 Fold of SEQ ID NO: 109		
B5	2.3 Fold of SEQ ID NO: 109		
B6	2.5 Fold of SEQ ID NO: 109	2.5 Fold of SEQ ID NO: 109	
B7	2.2 Fold of SEQ ID NO: 109		
B8	2.1 Fold of SEQ ID NO: 109		
B9	1.8 Fold of SEQ ID NO: 109	1.8 Fold of SEQ ID NO: 109	
B10	1.8 Fold of SEQ ID NO: 109	1.8 Fold of SEQ ID NO: 109	
B11			Dicamba Decarboxylase Activity [1]: native dicamba decarboxylase activity; decarboxylation activity of dicamba [7]: showed decarboxylation activity of dicamba; 4-chloro-3-methoxy phenol product [3]: detected; CO2 product [4]: detected; 2,5-DCP product [5]: detected
